Sequences and labels used below:
B1: WD and tetratricopeptide repeats protein 1 [OS = Homo sapiens] (protein, UniProt Q8N5D0 1-677, looked up)
chain: MAKVNITRDLIRRQIKERGALSFERRYHVTDPFIRRLGLEAELQGHSGCVNCLEWNEKGDLLASGSDDQHTIVWDPLHHKKLLSMHTGHTANIFSVKFLPHAGDRILITGAADSKVHVHDLTVKETIHMFGDHTNRVKRIATAPMWPNTFWSAAEDGLIRQYDLRENSKHSEVLIDLTEYCGQLVEAKCLTVNPQDNNCLAVGASGPFVRLYDIRMIHNHRKSMKQSPSAGVHTFCDRQKPLPDGAAQYYVAGHLPVKLPDYNNRLRVLVATYVTFSPNGTELLVNMGGEQVYLFDLTYKQRPYTFLLPRKCHSSGEVQNGKMSTNGVSNGVSNGLHLHSNGFRLPESRGHVSPQVELPPYLERVKQQANEAFACQQWTQAIQLYSKAVQRAPHNAMLYGNRAAAYMKRKWDGDHYDALRDCLKAISLNPCHLKAHFRLARCLFELKYVAEALECLDDFKGKFPEQAHSSACDALGRDITAALFSKNDGEEKKGPGGGAPVRLRSTSRKDSISEDEMVLRERSYDYQFRYCGHCNTTTDIKEANFFGSNAQYIVSGSDDGSFFIWEKETTNLVRVLQGDESIVNCLQPHPSYCFLATSGIDPVVRLWNPRPESEDLTGRVVEDMEGASQANQRRMNADPLEVMLLNMGYRITGLSSGGAGASDDEDSSEGQVQCRPS
B2: Histone deacetylase complex subunit SAP18 [OS = Homo sapiens] (protein, UniProt O00422 2-153, looked up)
chain: AVESRVTQEEIKKEPEKPIDREKTCPLLLRVFTTNNGRHHRMDEFSRGNVPSSELQIYTWMDATLKELTSLVKEVYPEARKKGTHFNFAIVFTDVKRPGYRVKEIGSTMSGRKGTDDSMTLQSQKFQIGDYLDIAITPPNRAPPPSGRMRPY
B3: serrate RNA effector molecule homolog [OS = Homo sapiens] (protein, UniProt Q9BXP5 2-876, looked up)
chain: GDSDDEYDRRRRDKFRRERSDYDRSRERDERRRGDDWNDREWDRGRERRSRGEYRDYDRNRRERFSPPRHELSPPQKRMRRDWDEHSSDPYHSGYEMPYAGGGGGPTYGPPQPWGHPDVHIMQHHVLPIQARLGSIAEIDLGVPPPVMKTFKEFLLSLDDSVDETEAVKRYNDYKLDFRRQQMQDFFLAHKDEEWFRSKYHPDEVGKRRQEARGALQNRLRVFLSLMETGWFDNLLLDIDKADAIVKMLDAAVIKMEGGTENDLRILEQEEEEEQAGKPGEPSKKEEGRAGAGLGDGERKTNDKDEKKEDGKQAENDSSNDDKTKKSEGDGDKEEKKEDSEKEAKKSSKKRNRKHSGDDSFDEGSVSESESESESGQAEEEKEEAEEALKEKEKPKEEEWEKPKDAAGLECKPRPLHKTCSLFMRNIAPNISRAEIISLCKRYPGFMRVALSEPQPERRFFRRGWVTFDRSVNIKEICWNLQNIRLRECELSPGVNRDLTRRVRNINGITQHKQIVRNDIKLAAKLIHTLDDRTQLWASEPGTPPLPTSLPSQNPILKNITDYLIEEVSAEEEELLGSSGGAPPEEPPKEGNPAEINVERDEKLIKVLDKLLLYLRIVHSLDYYNTCEYPNEDEMPNRCGIIHVRGPMPPNRISHGEVLEWQKTFEEKLTPLLSVRESLSEEEAQKMGRKDPEQEVEKFVTSNTQELGKDKWLCPLSGKKFKGPEFVRKHIFNKHAEKIEEVKKEVAFFNNFLTDAKRPALPEIKPAQPPGPAQILPPGLTPGLPYPHQTPQGLMPYGQPRPPILGYGAGAVRPAVPTGGPPYPHAPYGAGRGNYDAFRGQGGYPGKPRNRMVRGDPRAIVEYRDLDAPDDVDFF
B4: transformer-2 protein homolog beta [OS = Homo sapiens] (protein, UniProt P62995 2-288, looked up)
chain: SDSGEQNYGERESRSASRSGSAHGSGKSARHTPARSRSKEDSRRSRSKSRSRSESRSRSRRSSRRHYTRSRSRSRSHRRSRSRSYSRDYRRRHSHSHSPMSTRRRHVGNRANPDPNCCLGVFGLSLYTTERDLREVFSKYGPIADVSIVYDQQSRRSRGFAFVYFENVDDAKEAKERANGMELDGRRIRVDFSITKRPHTPTPGIYMGRPTYGSSRRRDYYDRGYDRGYDDRDYYSRSYRGGGGGGGGWRAAQDRDQIYRRRSPSPYYSRGGYRSRSRSRSYSPRRY
B5: GTPase-activating protein and VPS9 domain-containing protein 1 [OS = Homo sapiens] (protein, UniProt Q14C86 1-1478, looked up)
chain: MVKLDIHTLAHHLKQERLYVNSEKQLIQRLNADVLKTAEKLYRTAWIAKQQRINLDRLIITSAEASPAECCQHAKILEDTQFVDGYKQLGFQETAYGEFLSRLRENPRLIASSLVAGEKLNQENTQSVIYTVFTSLYGNCIMQEDESYLLQVLRYLIEFELKESDNPRRLLRRGTCAFSILFKLFSEGLFSAKLFLTATLHEPIMQLLVEDEDHLETDPNKLIERFSPSQQEKLFGEKGSDRFRQKVQEMVESNEAKLVALVNKFIGYLKQNTYCFPHSLRWIVSQMYKTLSCVDRLEVGEVRAMCTDLLLACFICPAVVNPEQYGIISDAPINEVARFNLMQVGRLLQQLAMTGSEEGDPRTKSSLGKFDKSCVAAFLDVVIGGRAVETPPLSSVNLLEGLSRTVVYITYSQLITLVNFMKSVMSGDQLREDRMALDNLLANLPPAKPGKSSSLEMTPYNTPQLSPATTPANKKNRLPIATRSRSRTNMLMDLHMDHEGSSQETIQEVQPEEVLVISLGTGPQLTPGMMSENEVLNMQLSDGGQGDVPVDENKLHGKPDKTLRFSLCSDNLEGISEGPSNRSNSVSSLDLEGESVSELGAGPSGSNGVEALQLLEHEQATTQDNLDDKLRKFEIRDMMGLTDDRDISETVSETWSTDVLGSDFDPNIDEDRLQEIAGAAAENMLGSLLCLPGSGSVLLDPCTGSTISETTSEAWSVEVLPSDSEAPDLKQEERLQELESCSGLGSTSDDTDVREVSSRPSTPGLSVVSGISATSEDIPNKIEDLRSECSSDFGGKDSVTSPDMDEITHGAHQLTSPPSQSESLLAMFDPLSSHEGASAVVRPKVHYARPSHPPPDPPILEGAVGGNEARLPNFGSHVLTPAEMEAFKQRHSYPERLVRSRSSDIVSSVRRPMSDPSWNRRPGNEERELPPAAAIGATSLVAAPHSSSSSPSKDSSRGETEERKDSDDEKSDRNRPWWRKRFVSAMPKAPIPFRKKEKQEKDKDDLGPDRFSTLTDDPSPRLSAQAQVAEDILDKYRNAIKRTSPSDGAMANYESTGDNHDRDLSSKLLYHSDKEVMGDGESAHDSPRDEALQNISADDLPDSASQAAHPQDSAFSYRDAKKKLRLALCSADSVAFPVLTHSTRNGLPDHTDPEDNEIVCFLKVQIAEAINLQDKNLMAQLQETMRCVCRFDNRTCRKLLASIAEDYRKRAPYIAYLTRCRQGLQTTQAHLERLLQRVLRDKEVANRYFTTVCVRLLLESKEKKIREFIQDFQKLTAADDKTAQVEDFLQFLYGAMAQDVIWQNASEEQLQDAQLAIERSVMNRIFKLAFYPNQDGDILRDQVLHEHIQRLSKVVTANHRALQIPEVYLREAPWPSAQSEIRTISAYKTPRDKVQCILRMCSTIMNLLSLANEDSVPGADDFVPVLVFVLIKANPPCLLSTVQYISSFYASCLSGEESYWWMQFTAAVEFIKTIDDRK
B6: 14-3-3 protein theta [OS = Homo sapiens], P27348 1-245 (protein, UniProt P27348 1-245, looked up)
chain: MEKTELIQKAKLAEQAERYDDMATCMKAVTEQGAELSNEERNLLSVAYKNVVGGRRSAWRVISSIEQKTDTSDKKLQLIKDYREKVESELRSICTTVLELLDKYLIANATNPESKVFYLKMKGDYFRYLAEVACGDDRKQTIDNSQGAYQEAFDISKKEMQPTHPIRLGLALNFSVFYYEILNNPELACTLAKTAFDEAIAELDTLNEDSYKDSTLIMQLLRDNLTLWTSDSAGEECDAAEGAEN
B7: Serine/arginine-rich splicing factor 10 [OS = Homo sapiens], O75494 1-262 (protein, UniProt O75494 1-262, looked up)
chain: MSRYLRPPNTSLFVRNVADDTRSEDLRREFGRYGPIVDVYVPLDFYTRRPRGFAYVQFEDVRDAEDALHNLDRKWICGRQIEIQFAQGDRKTPNQMKAKEGRNVYSSSRYDDYDRYRRSRSRSYERRRSRSRSFDYNYRRSYSPRNSRPTGRPRRSRSHSDNDRFKHRNRSFSRSKSNSRSRSKSQPKKEMKAKSRSRSASHTKTRGTSKTDSKTHYKSGSRYEKESRKKEPPRSKSQSRSQSRSRSKSRSRSWTSPKSSGH
B8: 14-3-3 protein sigma [OS = Homo sapiens], P31947 1-248 (protein, UniProt P31947 1-248, looked up)
chain: MERASLIQKAKLAEQAERYEDMAAFMKGAVEKGEELSCEERNLLSVAYKNVVGGQRAAWRVLSSIEQKSNEEGSEEKGPEVREYREKVETELQGVCDTVLGLLDSHLIKEAGDAESRVFYLKMKGDYYRYLAEVATGDDKKRIIDSARSAYQEAMDISKKEMPPTNPIRLGLALNFSVFHYEIANSPEEAISLAKTTFDEAMADLHTLSEDSYKDSTLIMQLLRDNLTLWTADNAGEEGGEAPQEPQS
B9: 14-3-3 protein epsilon [OS = Homo sapiens], P62258 1-255 (protein, UniProt P62258 1-255, looked up)
chain: MDDREDLVYQAKLAEQAERYDEMVESMKKVAGMDVELTVEERNLLSVAYKNVIGARRASWRIISSIEQKEENKGGEDKLKMIREYRQMVETELKLICCDILDVLDKHLIPAANTGESKVFYYKMKGDYHRYLAEFATGNDRKEAAENSLVAYKAASDIAMTELPPTHPIRLGLALNFSVFYYEILNSPDRACRLAKAAFDDAIAELDTLSEESYKDSTLIMQLLRDNLTLWTSDMQGDGEEQNKEALQDVEDENQ

Consider nine molecules from patent publication US20240391961A1.

The target in one test is 14-3-3ζ nhpSer58 with a FLAG tag at its N-terminus (Homo sapiens (Human)) (UniProt P63104).
Conditions: not given
B1 registered an FC of 0.202 fold.
B2 came in with an FC of 0.187 fold.
Molecule B3 gave an FC of 0.12 fold.
The same measure, in the same setting: the value for B4 was 0.194 fold; that for B5 was 0.177 fold.

The target in a further test is T1, 14-3-3ζ nhpSer58 with a FLAG tag at its N-terminus (Homo sapiens (Human)), P63104.
T1 chain: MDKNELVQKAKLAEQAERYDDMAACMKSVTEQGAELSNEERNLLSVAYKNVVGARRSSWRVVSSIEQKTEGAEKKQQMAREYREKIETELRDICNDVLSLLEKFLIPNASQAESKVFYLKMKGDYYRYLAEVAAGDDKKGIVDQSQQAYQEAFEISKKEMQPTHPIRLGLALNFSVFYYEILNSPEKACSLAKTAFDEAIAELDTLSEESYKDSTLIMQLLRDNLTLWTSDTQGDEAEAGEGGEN
The settings on record: remark: other sources report otherwise.
With B6, the FC came to 0.0473 fold.
The same measure, in the same setting: the value for B7 was 0.0496 fold.
Still for that read-out and setting: with B8 the figure was 0.0526 fold; with B9, 0.0482 fold.
